One experiment concerns the target T1, Bcl-xL (Homo sapiens, UniProt Q07817).
T1 construct: myc-Bcl-xL SPOT array & FP; made in house
Put plainly: LUMIER full-length protein interaction. In kind it is binding. The settings on record: LUMIER results for Bcl-xL; for z-score 1.1: experiment 1, duplicate 1; for z-score 1.2: experiment 1, duplicate 2; for z-score 2.1: experiment 2, duplicate 1; for z-score 2.2: experiment 2, duplicate 2. As to the method:
(§1) The LUMIER assay was carried out as previously described with the following modifications. A stable cell line expressing receptor tagged on the N-terminus with Nanoluc luciferase was created (the prey). […] Each bait construct was transfected into the receptor-luciferase cells in a 96-well format and after 48 hours the cells were lysed and transferred to 384-well plates coated with anti-FLAG. After incubation and washing, luminescence was measured to quantify how much receptor-luciferase was captured by the bait protein. Anti-Flag ELISA signal was used to exclude bait proteins that were not expressed. The experiment was carried out two times, each in duplicate.

In a further experiment the target is T2, Mcl-1 (Homo sapiens, UniProt Q07820).
T2 construct: myc-Mcl-1 SPOT array & FP; made in house
T2 sequence (Q07820 with tags, fused parts or gaps): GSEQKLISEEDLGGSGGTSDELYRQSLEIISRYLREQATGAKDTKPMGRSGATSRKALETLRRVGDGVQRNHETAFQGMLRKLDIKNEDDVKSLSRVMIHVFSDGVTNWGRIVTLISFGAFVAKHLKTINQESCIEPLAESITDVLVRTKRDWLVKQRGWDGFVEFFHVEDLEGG
Put plainly: LUMIER full-length protein interaction. Format: binding. Conditions: LUMIER results for Mcl-1, Z-score relative to Gaussian fit of the data; for z-score 1.2: experiment 1, duplicate 2; for z-score 2.1: experiment 2, duplicate 1; for z-score 2.2: experiment 2, duplicate 2. The method, then:
as §1

Where [1] appears, read: Z-score relative to Gaussian fit of the data.
The mark [2] stands for this setting: Z-score of the interaction relative to the Gaussian fit of the data.

Several values for one entry are separate records, joined by “and”; a condition that tells them apart may be missing. Identical values can stand only once.

T1 sequence (Q07817 with tags, fused parts or gaps): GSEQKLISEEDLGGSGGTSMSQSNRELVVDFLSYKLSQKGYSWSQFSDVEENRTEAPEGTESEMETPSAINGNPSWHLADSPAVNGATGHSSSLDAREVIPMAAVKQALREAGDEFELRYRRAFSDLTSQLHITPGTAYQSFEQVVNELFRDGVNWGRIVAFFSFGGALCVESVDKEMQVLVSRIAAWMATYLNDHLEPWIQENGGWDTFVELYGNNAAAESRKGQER

With HEXDC (VLELHPGAQRLHIGCDEVYYLGEGEA), in the experiment with Bcl-xL (setting [1]), the “z-score 1.1” value is -0.9348, the “z-score 1.2” value was -0.7792, the “z-score 2.1” value was -0.04647 and the “z-score 2.2” value was -0.8049. For the same substance, in the experiment with Mcl-1, the “z-score 1.2” value is on record as -0.6103, the “z-score 2.1” value was -1.0129 and the “z-score 2.2” value is recorded as -1.44.

As for IPO5 (SEIMHSFAKCIEVMGDGCLNNEHFEE), in the experiment with Bcl-xL (setting [1]), the “z-score 1.1” value came to 8.932, the “z-score 1.2” value was -0.8907, the “z-score 2.1” value came to 0.7008 and the “z-score 2.2” value is reported as 0.6709. Moreover, in the experiment with Mcl-1, the “z-score 1.2” value is reported as 1.584, the “z-score 2.1” value stood at 1.802 and the “z-score 2.2” value was 1.866.

Take ISOC1 (AGYELLIQKFLSLYGDQIDMHRKFVV): the “z-score 2.2” value with Bcl-xL (setting [1]) is 0.4271 and 0.3646; with Mcl-1, 0.5198 and 0.4144. In addition, the “z-score 2.1” value in the experiment with Mcl-1 is 1.04 and 0.6675.

With MAPT, in the experiment with Bcl-xL (setting [1]), the “z-score 1.1” value was 0.3413, the “z-score 1.2” value came out at 1.938 and the “z-score 2.1” value is 0.8331. For the same substance, in the experiment with Mcl-1, the “z-score 1.2” value was determined as 0.1627 and the “z-score 2.2” value amounted to 0.6441.

For NOL8 (KYDPSKYCHNLKKIGEDFSNTIPISS), in the experiment with Bcl-xL (setting [1]), the “z-score 1.1” value is reported as 1.001, the “z-score 1.2” value is listed as -1.268, the “z-score 2.1” value is 4.4 and the “z-score 2.2” value was determined as 3.656. In addition, in the experiment with Mcl-1, the “z-score 1.2” value is given as 0.3257, the “z-score 2.1” value is 2.02 and the “z-score 2.2” value amounted to 1.79.

Take NRN1L (DTIYQGFAECLIRLGDSMGRGGELET): in the experiment with Bcl-xL (setting [1]), the “z-score 1.1” value was -0.79, the “z-score 1.2” value is recorded as -2.494, the “z-score 2.1” value was 0.3656 and the “z-score 2.2” value is recorded as 0.03743. Moreover, in the experiment with Mcl-1, the “z-score 1.2” value was 1.162, the “z-score 2.1” value turned out to be 0.005652 and the “z-score 2.2” value is on record as 1.343.

Take P2RX7 (QCPIFRLGDIFRETGDNFSDVAIQGG): in the experiment with Bcl-xL (setting [1]), the “z-score 1.1” value worked out at 0.2486, the “z-score 1.2” value is listed as -0.6775, the “z-score 2.1” value turned out to be 0.2039 and the “z-score 2.2” value is -0.7989. Moreover, in the experiment with Mcl-1, the “z-score 1.2” value was -0.04596, the “z-score 2.1” value was -0.1664 and the “z-score 2.2” value was -0.3437.

With PCNXL2 (LLDFFMVSILFSKLGDLLHKLQFVLT), in the experiment with Bcl-xL (setting [1]), the “z-score 1.1” value is reported as -0.7258, the “z-score 1.2” value was determined as 0.8817, the “z-score 2.1” value turned out to be 0.72 and the “z-score 2.2” value came to 1.005. Further, in the experiment with Mcl-1, the “z-score 1.2” value is recorded as -1.056, the “z-score 2.1” value is on record as 0.4915 and the “z-score 2.2” value is -0.3857.

Consider PPAT (RLRQLGVAKKFGVLSDNFKGKRIVLV), for which, in the experiment with Bcl-xL (setting [1]), the “z-score 1.1” value is listed as -0.3811, the “z-score 1.2” value amounted to 0.4308, the “z-score 2.1” value is recorded as -0.2564 and the “z-score 2.2” value is -0.4829. Moreover, in the experiment with Mcl-1, the “z-score 1.2” value is 0.1831, the “z-score 2.1” value was -0.6136 and the “z-score 2.2” value is -0.9152.

In the case of PRCP (DDMFEPHSWNLKELSDDCFQQWGVRP), in the experiment with Bcl-xL (setting [1]), the “z-score 1.1” value is reported as -0.9043, the “z-score 1.2” value was 0.9292, the “z-score 2.1” value worked out at 0.4444 and the “z-score 2.2” value was 1.668. In addition, in the experiment with Mcl-1, the “z-score 1.2” value is reported as 0.7633, the “z-score 2.1” value turned out to be 0.7051 and the “z-score 2.2” value came out at 0.9311.

Consider PRDX4 (LDFTFVCPTEIIAFGDRLEEFRSINT), for which, in the experiment with Bcl-xL (setting [1]), the “z-score 1.1” value is given as -0.3595, the “z-score 1.2” value is -2.173, the “z-score 2.1” value is listed as -0.3545 and the “z-score 2.2” value is -0.635. In the experiment with Mcl-1, the “z-score 1.2” value is -0.5708, the “z-score 2.1” value was -0.006199 and the “z-score 2.2” value is -0.3116.

As for PRKD3 (IQENVDISTVYQIFADEVLGSGQFGI), in the experiment with Bcl-xL (setting [2]), the “z-score 1.1” value worked out at 6.764, the “z-score 1.2” value was -0.4537, the “z-score 2.1” value was determined as 1.665 and the “z-score 2.2” value is reported as 5.133. In addition, in the experiment with Mcl-1, the “z-score 1.2” value came out at 0.6899, the “z-score 2.1” value is on record as 3.751 and the “z-score 2.2” value is 3.546.

With RBL1 (WTLFVYTKGNFRMIGDDLVNSYHLLL), in the experiment with Bcl-xL (setting [1]), the “z-score 1.1” value is 5.112, the “z-score 2.1” value was found to be 2.327 and the “z-score 2.2” value was found to be 1.895. Further, in the experiment with Mcl-1, the “z-score 1.2” value turned out to be 0.3355, the “z-score 2.1” value is recorded as 1.744 and the “z-score 2.2” value stood at 0.6936.

As for RNF160 (WLKGDILGEKLVNLADCLCNEDLESR), in the experiment with Bcl-xL (setting [1]), the “z-score 1.1” value was -0.1237, the “z-score 1.2” value worked out at 0.7519, the “z-score 2.1” value was found to be 2.286 and the “z-score 2.2” value came out at 3.519. Besides, in the experiment with Mcl-1, the “z-score 1.2” value amounted to 0.2603 and the “z-score 2.2” value is -0.3716.

With SGCA (LFWTPLLVVLLAGLGDTEAQQTTLHP), in the experiment with Bcl-xL (setting [1]), the “z-score 1.1” value is given as 1.122, the “z-score 1.2” value came out at 0.5458, the “z-score 2.1” value was 0.3748 and the “z-score 2.2” value is given as 0.07051. Also, in the experiment with Mcl-1, the “z-score 1.2” value worked out at 1.007, the “z-score 2.1” value was found to be 0.04852 and the “z-score 2.2” value was -0.477.

Consider SIPA1 (TAGLRPGARLLRVCGQTLPSLRPEAA), for which, in the experiment with Bcl-xL (setting [1]), the “z-score 1.1” value amounted to 0.6815, the “z-score 2.1” value was 3.9688 and the “z-score 2.2” value turned out to be 2.046. Besides, in the experiment with Mcl-1, the “z-score 1.2” value is listed as 0.6268, the “z-score 2.1” value is -0.03415 and the “z-score 2.2” value was -0.3116.

As to SMPD2 (PYLSKHRADRMRRLGDFLNQESFDLA), in the experiment with Bcl-xL (setting [1]), the “z-score 1.1” value is reported as -0.2083, the “z-score 1.2” value is listed as 2.876, the “z-score 2.1” value is -0.2736 and the “z-score 2.2” value was 2.724. Also, in the experiment with Mcl-1, the “z-score 1.2” value was -0.1967, the “z-score 2.1” value was -0.5316 and the “z-score 2.2” value is given as -0.9514.

As for STK11IP (DSLLWKLAGLLRESGDVVLSGCSTLS), in the experiment with Bcl-xL (setting [1]), the “z-score 1.1” value is -2.105, the “z-score 1.2” value was -2.491, the “z-score 2.1” value is on record as -0.2948 and the “z-score 2.2” value came to 0.7075. Further, in the experiment with Mcl-1, the “z-score 1.2” value worked out at 0.4828, the “z-score 2.1” value is -0.9757 and the “z-score 2.2” value is listed as -1.0129.

As for TAP1 (MSILTIASAVLEFVGDGIYNNTMGHV), in the experiment with Bcl-xL (setting [1]), the “z-score 1.1” value is 3.909, the “z-score 1.2” value is on record as -0.1665, the “z-score 2.1” value is 0.7598 and the “z-score 2.2” value was -0.2. In the experiment with Mcl-1, the “z-score 1.2” value is -0.7174, the “z-score 2.1” value turned out to be 0.2302 and the “z-score 2.2” value is reported as -0.2533.

As to TMEM184C (SDIRDDISEQVRHVGRTVRGHPRKKL), in the experiment with Bcl-xL (setting [1]), the “z-score 1.1” value is -0.516, the “z-score 1.2” value is listed as -0.4557, the “z-score 2.1” value amounted to 0.7398 and the “z-score 2.2” value is recorded as 0.3954. Further, in the experiment with Mcl-1, the “z-score 1.2” value amounted to 0.404, the “z-score 2.1” value was 2.487 and the “z-score 2.2” value was found to be 1.818.

Regarding TMEM214 (SFLSAHCASHLAWFGDSLTSLSQRLQ), in the experiment with Bcl-xL (setting [1]), the “z-score 1.1” value amounted to 0.1125, the “z-score 1.2” value was -0.2947, the “z-score 2.1” value was -0.2028 and the “z-score 2.2” value stood at 0.228. In addition, in the experiment with Mcl-1, the “z-score 1.2” value is reported as -0.396 and the “z-score 2.2” value is -0.9391.

As to TTC31 (DLSSTFVSLALRKVGDWPLSARREKG), in the experiment with Bcl-xL (setting [1]), the “z-score 1.1” value is reported as 0.5842, the “z-score 1.2” value is reported as 0.512, the “z-score 2.1” value was found to be 0.1189 and the “z-score 2.2” value is given as 0.4568. In addition, in the experiment with Mcl-1, the “z-score 1.2” value is on record as -0.2499, the “z-score 2.1” value is on record as -0.5416 and the “z-score 2.2” value is -0.2181.

With WDR60 (GGRVKLVHSALIQLGDSLSHKGNEFW), in the experiment with Bcl-xL (setting [2]), the “z-score 1.1” value is 4.105, the “z-score 1.2” value is recorded as 0.5337, the “z-score 2.1” value is -0.08078 and the “z-score 2.2” value worked out at 0.3897. Moreover, in the experiment with Mcl-1, the “z-score 1.2” value is listed as 0.5442, the “z-score 2.1” value is on record as 0.4209 and the “z-score 2.2” value came out at 0.563.

As for WRAP53 (RKDAELLCWDLRQSGYPLWSLGREVT), in the experiment with Bcl-xL (setting [1]), the “z-score 1.1” value is 0.8939, the “z-score 1.2” value was -0.01936, the “z-score 2.1” value is recorded as 1.1339 and the “z-score 2.2” value is recorded as 1.068. Further, in the experiment with Mcl-1, the “z-score 2.1” value amounted to 1.332 and the “z-score 2.2” value was 1.084.

ZNF295 (ERLKGQLCDVLLIVGDQKFRAHKNVL): in the experiment with Bcl-xL (setting [1]), the “z-score 1.1” value came out at 0.6872, the “z-score 1.2” value is given as -1.979, the “z-score 2.1” value is 2.441 and the “z-score 2.2” value is recorded as -0.4135. In the experiment with Mcl-1, the “z-score 1.2” value came out at 0.3792, the “z-score 2.1” value was -0.9697 and the “z-score 2.2” value is listed as 0.1208.

The values are drawn from publication PMC4072508, “Genome-Wide Prediction and Validation of Peptides That Bind Human Prosurvival Bcl-2 Proteins” (PLoS Computational Biology, 2014).
